Source: patent US20230038638A1, “COMPLEMENT FACTOR I-RELATED COMPOSITIONS AND METHODS” (published 2023)

Tests used:
[1] = biological target: soluble human C3b (human) (UniProt P01024)
human C4b (human) = biological target: T1, human C4b (human) (UniProt P0C0L5)
T1 sequence: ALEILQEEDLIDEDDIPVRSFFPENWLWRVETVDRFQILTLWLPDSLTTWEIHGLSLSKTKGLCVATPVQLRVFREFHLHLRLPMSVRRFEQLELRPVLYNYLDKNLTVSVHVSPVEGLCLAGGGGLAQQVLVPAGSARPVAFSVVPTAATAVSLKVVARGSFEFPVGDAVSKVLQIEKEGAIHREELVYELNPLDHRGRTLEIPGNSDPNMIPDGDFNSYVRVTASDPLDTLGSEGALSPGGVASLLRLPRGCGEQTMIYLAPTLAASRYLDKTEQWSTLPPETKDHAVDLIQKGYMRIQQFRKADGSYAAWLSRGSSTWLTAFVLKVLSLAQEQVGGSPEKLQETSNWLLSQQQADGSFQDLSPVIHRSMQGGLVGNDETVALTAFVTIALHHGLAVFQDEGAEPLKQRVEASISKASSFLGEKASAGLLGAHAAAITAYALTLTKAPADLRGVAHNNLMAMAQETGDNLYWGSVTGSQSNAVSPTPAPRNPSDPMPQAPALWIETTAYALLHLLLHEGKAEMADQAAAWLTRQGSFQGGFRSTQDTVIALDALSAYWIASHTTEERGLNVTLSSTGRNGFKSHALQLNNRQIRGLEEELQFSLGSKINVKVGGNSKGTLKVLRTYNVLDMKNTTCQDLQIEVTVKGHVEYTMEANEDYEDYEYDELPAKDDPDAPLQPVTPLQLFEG

Chain of Δ(K1-P305); GGSSGG (SEQ ID NO: 6); fH_CCP2-4 (enzyme) (chain): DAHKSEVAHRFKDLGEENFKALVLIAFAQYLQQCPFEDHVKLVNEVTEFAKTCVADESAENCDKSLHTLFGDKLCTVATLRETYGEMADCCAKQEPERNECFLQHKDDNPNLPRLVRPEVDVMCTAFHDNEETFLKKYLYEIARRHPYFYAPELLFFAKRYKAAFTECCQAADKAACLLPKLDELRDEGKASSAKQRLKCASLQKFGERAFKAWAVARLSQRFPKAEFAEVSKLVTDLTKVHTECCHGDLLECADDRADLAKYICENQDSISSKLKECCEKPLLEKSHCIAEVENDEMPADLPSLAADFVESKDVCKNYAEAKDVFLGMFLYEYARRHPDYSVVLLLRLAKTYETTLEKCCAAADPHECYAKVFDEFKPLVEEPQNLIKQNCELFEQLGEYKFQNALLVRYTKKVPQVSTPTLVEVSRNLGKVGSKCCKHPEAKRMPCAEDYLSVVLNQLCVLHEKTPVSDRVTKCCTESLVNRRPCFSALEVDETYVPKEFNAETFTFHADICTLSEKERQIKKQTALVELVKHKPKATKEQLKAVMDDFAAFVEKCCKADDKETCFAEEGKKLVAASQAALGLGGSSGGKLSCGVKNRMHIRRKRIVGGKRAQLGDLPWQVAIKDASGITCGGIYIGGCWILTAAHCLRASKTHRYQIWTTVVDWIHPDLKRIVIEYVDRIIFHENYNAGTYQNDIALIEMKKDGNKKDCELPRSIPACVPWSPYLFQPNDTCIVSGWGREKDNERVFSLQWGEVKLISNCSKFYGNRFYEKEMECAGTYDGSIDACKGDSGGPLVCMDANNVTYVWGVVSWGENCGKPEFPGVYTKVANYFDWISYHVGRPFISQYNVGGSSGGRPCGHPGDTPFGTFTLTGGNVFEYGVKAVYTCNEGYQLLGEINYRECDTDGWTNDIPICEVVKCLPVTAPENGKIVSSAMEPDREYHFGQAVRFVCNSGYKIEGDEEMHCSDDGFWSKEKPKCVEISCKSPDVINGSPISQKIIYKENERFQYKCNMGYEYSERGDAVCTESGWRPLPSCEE

Substance | iC3b Screen Ref Fold (fold vs CFI-HSA wild type) [1] | C4b Screen Ref Fold (fold vs CFI-HSA wild type) (human C4b (human)) | iC3b Screen Ref Fold (fold of CFI-HSA wild type) [1] | C4b Screen Ref Fold (fold of CFI-HSA wild type) (human C4b (human)) | further results
CFI-HSA Y553G (enzyme) | 0.88 | 0.48 |  |  | 
CFI-HSA N531G; P535A; ΔC-term (Δ558-PFISQYNV (SEQ ID NO: 14)-565) (enzyme) | 0.24 | 0.96 |  |  | 
CFI-HSA Y553I (enzyme) | 1.06 | 0.51 |  |  | 
CFI-HSA variant Y553H; F559L; V565I (enzyme) |  |  | 0.76 | 1.23 | 
CFI-HSA variant R462D (enzyme) | 0 | -0.05 |  |  | 
CFI-HSA variant S552G; F559L; V565I; P558S (enzyme) |  |  | 0.49 | 1.8 | 
(HSA-GS)-V311-V565 - G(13) - K1-G310; C309S; C435S (enzyme) | 0.03 | 0.06 |  |  | 
CFI-HSA variant V565I; P558S (enzyme) |  |  | 0.85 | 1.41 | 
CFI-HSA variant D506E (enzyme) | 0 | 0.01 |  |  | 
fH_CCP1-4; GGGGSS(9); wt hCFI (enzyme) | 0.66 | 0.97 |  |  | 
Δ(K1-P305); GGSSGG (SEQ ID NO: 6); fH_CCP2-4 (enzyme) | 0.03 | 0.06 |  |  | 
CFI-HSA T377G; E457G; E461Q (enzyme) | 2.27 | 3.75 |  |  | 
CFI-HSA variant P535G; K534Q (enzyme) |  |  | 0.24 | 0.35 | 
CFI-HSA Y553K (enzyme) | 1.12 | 1.49 |  |  | 
CFI-HSA R365M (enzyme) | 0.43 | 0.13 |  |  | 
CFI-HSA variant P558S; F559L (enzyme) |  |  | 0.54 | 0.9 | 

Substance | iC3b Screen Ref Fold (fold vs CFI-HSA wild type) [1] | C4b Screen Ref Fold (fold vs CFI-HSA wild type) (human C4b (human)) | iC3b Screen Ref Fold (fold of CFI-HSA wild type) [1] | C4b Screen Ref Fold (fold of CFI-HSA wild type) (human C4b (human)) | further results
CFI-HSA K424V (enzyme) | 0.89 | 0.29 |  |  | 
CFI-HSA D549T (enzyme) | 1.09 | 1.05 |  |  | 
CFI-HSA variant S552G; F559L (enzyme) |  |  | 0.79 | 1.41 | 
CFI-HSA variant Y553F (enzyme) |  |  | 0.67 | 1.37 | 
CFI-HSA variant S552G; F559L; V565I (enzyme) |  |  | 0.42 | 0.73 | 
CFI-HSA variant D425K; E457G; E461Q; N531G; R557A (enzyme) |  |  |  |  | iC3b Screen Ref Fold (fold relative to CFI-HSA wild type) [1]: 0.08; C4b Screen Ref Fold (fold relative to CFI-HSA wild type) (human C4b (human)): 2.8
CFI-HSA variant Y408L; N531G; E416A (enzyme) |  |  | 2.07 | 2.54 | 
fH_CCP1-4; GGSS(13); wt hCFI (enzyme) | 0.6 | 1.63 |  |  | 
CFI-HSA variant T495F; Y496L; D497E; S499G; I500K (enzyme) | 0 | -0.04 |  |  | 
CFI-HSA R365E (enzyme) | 0.02 | -0.06 |  |  | 
CFI-HSA R557S (enzyme) | 0.1 | 1.11 |  |  | 
CFI-HSA variant S552G; Y553H; F559L; V565I; P558S (enzyme) |  |  | 0.62 | 2.44 | 
WT; GGSSGG (SEQ ID NO: 6); CCP_1-5; GGSS(3) + GGG; compstatin (enzyme) | 0.03 | 0.25 |  |  | 
CFI-HSA E457G; N531G; E461Q; R462K; F464Y; E530Y (enzyme) | 1.83 | 5.7 |  |  | 
CFI-HSA R557T (enzyme) | 0.09 | 1.63 |  |  | 
CFI-HSA variant E487A; K14A (enzyme) |  |  | 1.71 | 0.87 | 
